Laboratory results as given in the supplement of paper PMC10567573.

B1: TRIM55 (parent)
chain: FQASNPYLPTRGGTTMASGGRFRC

Variants of: B1
Experiment: protein stability index of a GFP-peptide fusion (GPS, HEK-293T) (PSI 1-6); higher = more stable
Settings: c terminus: a fixed tail appended
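Further: lentivirally expressed fusions sorted by FACS into six bins by GFP to DsRed ratio, PSI derived from sequencing read proportions per bin multiplied by bin number.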

Protein stability index, by site and new letter:
S4: F 2.57 | G 1.1 | I 1.88 | K 1.85 | L 1.66 | M 2.09 | N 1.72 | P 1.8 | Q 1.86 | R 1.44 | T 2.81 | V 2.34 | Y 2.12
N5: A 2.65 | C 2.6 | D 2.81 | E 2.58 | F 3.23 | G 1.41 | H 3.58 | I 2.51 | K 1.78 | L 2.04 | P 2.22 | Q 2.33 | R 1.7 | S 3.55 | T 2 | V 2.1 | W 2.49 | Y 2.14
P6: A 1.96 | C 3.1 | D 2.07 | E 2.26 | F 2.12 | G 2.06 | H 2.37 | I 1.85 | K 3.13 | L 2.65 | N 2.72 | Q 2.48 | S 1.65 | T 1.93 | V 3.02 | W 1.93 | Y 2.42
Y7: A 3.52 | C 3.15 | D 3.76 | E 3.2 | F 2.43 | G 3.29 | H 3.36 | I 2.83 | K 2.91 | L 1.9 | M 2.68 | N 3.4 | P 3.54 | Q 3.45 | R 3.25 | S 3.18 | T 3.27 | V 3.13
L8: A 1.81 | C 3.09 | D 2.55 | E 3.39 | F 1.63 | G 2.02 | H 1.56 | I 2.79 | K 1.14 | M 1.26 | N 2 | P 1.92 | Q 2.22 | R 2.54 | S 2.7 | T 2.79 | V 2.03 | Y 1.59
P9: A 1.14 | C 2.04 | D 2.24 | E 2.17 | F 1.5 | G 1.63 | H 1.86 | I 1.89 | K 2.09 | L 2.65 | M 1.83 | N 1.85 | Q 1.72 | R 2.1 | S 1.7 | T 1.73 | V 2.2 | W 2.09 | Y 1.88
T10: A 2.06 | C 2.17 | D 1.61 | E 2.99 | F 2.19 | G 2.03 | H 2.17 | I 1.81 | K 1.74 | L 2.4 | M 3.72 | N 2.23 | P 2.37 | Q 1.93 | R 1.56 | S 1.97 | V 2.16 | W 2.81 | Y 1.83
R11: A 2.05 | C 2.76 | D 2 | E 2.29 | F 2.01 | G 2.02 | H 1.57 | I 2.46 | L 2.15 | M 2.11 | N 1.86 | P 2.13 | Q 1.8 | S 2.02 | T 1.65 | V 1.89 | W 2.68 | Y 2.28
G12: A 1.63 | C 2.23 | D 2.06 | E 1.55 | F 2.86 | H 2.04 | I 2.77 | L 2.67 | M 1.05 | N 1.62 | P 1.55 | Q 1.34 | R 2.79 | S 2.61 | T 2.13 | V 3.34 | W 2.35 | Y 1.81
G13: A 1.68 | C 1.65 | D 1.64 | E 1.46 | F 1.22 | H 2.32 | I 1.99 | K 2.74 | L 3.49 | M 2.65 | N 1.22 | P 1.7 | Q 2.68 | R 1.7 | S 1.75 | T 1.65 | V 1.9 | W 3.33 | Y 1.51
T14: A 1.93 | C 2.23 | D 1.27 | E 2.09 | F 1.5 | G 1.67 | H 1.37 | I 2 | K 2.3 | L 2.34 | M 2.32 | N 1.73 | P 2.47 | Q 2.52 | R 1.41 | S 2.11 | V 1.54 | W 1.32 | Y 1.5
T15: A 2.24 | C 1.28 | D 1.75 | E 1.48 | F 1.57 | G 2.85 | H 1.18 | I 1.88 | K 2.19 | L 1.69 | M 1.72 | N 2.3 | P 1.52 | Q 1.65 | R 2.93 | S 1.69 | V 2.54 | W 1.75 | Y 1.73
M16: A 1.57 | C 1.77 | D 1.65 | E 1.12 | F 1.76 | G 2.5 | H 1.69 | I 2.83 | K 3.34 | L 1.79 | N 2.02 | P 2.92 | Q 1.57 | R 1.86 | S 2.67 | T 1.99 | V 1.27 | W 1.42 | Y 1.98
A17: C 2.24 | D 1.76 | E 2.52 | F 1.88 | G 1.45 | H 1.85 | I 1.08 | K 1.79 | L 2.54 | M 1.93 | N 2.27 | P 1.76 | Q 2.02 | R 2.27 | S 2.14 | T 1.84 | V 3.21 | W 1.76 | Y 2.11
S18: A 1.97 | C 1.35 | D 2.09 | E 2.22 | F 1.95 | G 2.35 | H 1.57 | I 1.48 | K 3.05 | L 2.45 | M 2.51 | N 2.19 | P 1.79 | Q 2.07 | R 2.24 | T 2.23 | V 1.21 | Y 2.22
G19: A 1.7 | C 2.9 | D 2.06 | E 1.71 | F 1.91 | H 2.48 | I 2.04 | K 2.39 | L 2 | M 1.49 | N 1.77 | P 1.83 | Q 2.06 | R 1.9 | S 1.83 | T 2.28 | V 2.07 | W 1.63 | Y 2.06
G20: A 2.62 | C 1.6 | D 1.72 | E 1.97 | F 1.53 | H 1.66 | I 1.73 | K 2.1 | L 2.24 | M 3.49 | N 1.72 | P 2.19 | Q 1.68 | R 1.96 | S 1.34 | T 1.71 | V 1.77 | W 2.07 | Y 1.63
R21: A 1.18 | C 2.35 | D 1.81 | E 2.18 | F 1.71 | G 1.53 | H 1.68 | I 1.42 | K 3.08 | L 2.42 | M 1.81 | N 2.49 | P 2.12 | Q 1.85 | S 1.75 | T 1.04 | V 1.42 | Y 1.68
F22: A 1.42 | C 2.18 | D 1.41 | E 2.46 | G 1.43 | H 2.29 | I 1.57
